We go through one molecule from paper doi:10.1101/2021.08.20.457040 (bioRxiv, 2021).

Test [1] concerns the target T1, His6-GIGYF2 GYF domain (residues 529-597) (human, UniProt Q6Y7W6 529-597).
T1 sequence (looked up): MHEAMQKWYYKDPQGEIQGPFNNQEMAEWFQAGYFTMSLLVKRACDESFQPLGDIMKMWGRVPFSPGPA
Kind of test: pull-down.

For test [2], the target named is T2, His6-GIGYF1 GYF domain (residues 470-538) (human, UniProt O75420 470-538).
T2 sequence (looked up): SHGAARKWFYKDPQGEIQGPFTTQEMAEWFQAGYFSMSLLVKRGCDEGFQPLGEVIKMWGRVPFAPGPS
Kind of test: pull-down.

B1: GST-tagged fragment of the first tetra-proline region of TTP (residues 68-78) (peptide, UniProt P26651 68-78, looked up)
chain: GWVPPPPGFAP
Regarding B1, the binding result in test [1] and in test [2] was “binds” throughout.
